Assay results as given in patent publication US10428140B2, “Anti-EphA4 antibody” (EISAI R&D MANAGEMENT CO., LTD., priority 2015, dated 2019).

T1: human EphA3 (Homo sapiens, UniProt P29320)
T1 construct: a protein of the extracellular region of each human Eph receptor fused with the SEAP protein and the His tag; made in house; host or cells: Expi293F cells (culture supernatant)
T1 sequence (P29320 21-541 limits assumed): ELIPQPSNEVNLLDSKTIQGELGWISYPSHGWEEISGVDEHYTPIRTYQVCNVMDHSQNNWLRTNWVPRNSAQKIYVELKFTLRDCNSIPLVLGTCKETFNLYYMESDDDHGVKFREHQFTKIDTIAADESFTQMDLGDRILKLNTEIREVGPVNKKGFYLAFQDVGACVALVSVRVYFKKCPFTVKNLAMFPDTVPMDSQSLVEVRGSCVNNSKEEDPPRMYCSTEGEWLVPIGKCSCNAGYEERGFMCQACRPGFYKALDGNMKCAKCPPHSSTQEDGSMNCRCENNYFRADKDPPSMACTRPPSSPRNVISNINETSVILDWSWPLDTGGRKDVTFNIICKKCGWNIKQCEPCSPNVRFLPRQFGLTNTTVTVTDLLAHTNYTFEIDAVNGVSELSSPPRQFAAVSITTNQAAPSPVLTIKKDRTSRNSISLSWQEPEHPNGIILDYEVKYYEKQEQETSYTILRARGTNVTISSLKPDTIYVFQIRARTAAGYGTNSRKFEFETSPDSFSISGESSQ

T2: human EphB3 (Homo sapiens, UniProt P54753)
T2 construct: a protein of the extracellular region of each human Eph receptor fused with the SEAP protein and the His tag; made in house; host or cells: Expi293F cells
T2 sequence (P54753 34-559 limits assumed): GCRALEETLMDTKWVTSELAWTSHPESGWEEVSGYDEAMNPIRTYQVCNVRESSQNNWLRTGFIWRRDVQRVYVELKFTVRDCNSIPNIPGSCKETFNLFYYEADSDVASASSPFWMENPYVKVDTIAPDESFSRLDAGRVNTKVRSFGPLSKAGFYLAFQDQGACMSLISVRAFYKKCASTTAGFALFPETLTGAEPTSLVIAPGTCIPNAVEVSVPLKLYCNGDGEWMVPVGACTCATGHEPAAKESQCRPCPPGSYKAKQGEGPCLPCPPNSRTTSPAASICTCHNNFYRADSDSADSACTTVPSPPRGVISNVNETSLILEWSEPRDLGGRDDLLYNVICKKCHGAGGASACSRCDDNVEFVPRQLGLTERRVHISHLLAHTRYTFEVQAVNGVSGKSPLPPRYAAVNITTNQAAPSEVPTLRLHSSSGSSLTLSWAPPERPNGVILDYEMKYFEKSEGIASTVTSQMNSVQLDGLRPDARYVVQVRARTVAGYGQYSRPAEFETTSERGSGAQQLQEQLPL

T3: human EphB2 (Homo sapiens, UniProt P29323)
T3 construct: a protein of the extracellular region of each human Eph receptor fused with the SEAP protein and the His tag; made in house; host or cells: Expi293F cells
T3 sequence (P29323 19-543 limits assumed): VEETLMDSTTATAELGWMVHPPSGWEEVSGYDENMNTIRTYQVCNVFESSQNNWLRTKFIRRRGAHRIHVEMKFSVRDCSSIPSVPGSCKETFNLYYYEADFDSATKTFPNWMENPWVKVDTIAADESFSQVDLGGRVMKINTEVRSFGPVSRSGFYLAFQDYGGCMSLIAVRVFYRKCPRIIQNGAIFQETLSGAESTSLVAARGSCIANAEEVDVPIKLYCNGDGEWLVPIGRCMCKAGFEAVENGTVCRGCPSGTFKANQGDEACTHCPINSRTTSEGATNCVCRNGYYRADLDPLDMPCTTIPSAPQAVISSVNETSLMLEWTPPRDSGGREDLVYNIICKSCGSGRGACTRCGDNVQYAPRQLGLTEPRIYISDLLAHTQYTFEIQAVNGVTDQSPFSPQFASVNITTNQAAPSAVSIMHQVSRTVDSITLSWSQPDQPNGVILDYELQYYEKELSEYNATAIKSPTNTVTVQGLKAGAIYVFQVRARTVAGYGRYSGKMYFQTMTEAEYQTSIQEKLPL


Experiments:
Assay in all cases: Selectivity ELISA of humanized antibodies for human Eph receptor
Type in all cases: binding
Conditions in all cases: coated protein 1 nM
[1] = molecular target: T1, human EphA3
How it was run: (§1)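 His-tagged SEAP fusions of each human Eph receptor extracellular region, from Expi293F supernatants, were captured at 1 nM on anti-His-coated wells. Humanized antibody was bound 1 h at room temperature, then detected with HRP […] IgG. TMB development was acid-stopped and read at 450 nm.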

[2] = molecular target: T2, human EphB3
How it was run: as §1

[3] = molecular target: SEAP-His (Homo sapiens, UniProt P05187)
Chain of SEAP-His (P05187 23-511 limits assumed): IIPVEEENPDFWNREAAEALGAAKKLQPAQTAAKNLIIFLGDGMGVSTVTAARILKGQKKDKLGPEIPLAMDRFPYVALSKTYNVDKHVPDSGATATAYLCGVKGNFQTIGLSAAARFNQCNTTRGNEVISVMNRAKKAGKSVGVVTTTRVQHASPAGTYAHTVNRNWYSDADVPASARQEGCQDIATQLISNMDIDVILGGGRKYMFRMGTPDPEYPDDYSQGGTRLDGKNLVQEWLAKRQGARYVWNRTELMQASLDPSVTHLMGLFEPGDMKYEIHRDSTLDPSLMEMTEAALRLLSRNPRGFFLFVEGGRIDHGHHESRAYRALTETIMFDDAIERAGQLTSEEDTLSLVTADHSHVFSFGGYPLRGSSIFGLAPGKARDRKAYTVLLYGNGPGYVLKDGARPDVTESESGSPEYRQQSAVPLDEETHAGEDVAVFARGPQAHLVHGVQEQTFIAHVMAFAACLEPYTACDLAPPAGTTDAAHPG
How it was run: as §1

[4] = molecular target: T3, human EphB2
How it was run: as §1

Molecule	hEphA3-SEAP-: absorbance at 450 nm, percentage with respect to hEphA4-SEAP-His as 100% [1]	hEphB3-SEAP-: absorbance at 450 nm, percentage with respect to hEphA4-SEAP-His as 100% [2]	SEAP-His: absorbance at 450 nm, percentage with respect to hEphA4-SEAP-His as 100% [3]	hEphB2-SEAP-: absorbance at 450 nm, percentage with respect to hEphA4-SEAP-His as 100% [4]
67 (antibody, V domains shown, synthetic humanized antibody heavy chain variable region sequence; synthetic humanized antibody light chain variable region sequence) VH: QIQLVQSGSELKKPGASVKVSCKASGYTFTDYSMHWVRQAPGQGLKWMGWINTETGEPTYAQGFTGRFVFSLDTSVSTAYLQISSLKAEDTAVYYCARIPLYYYGSRYWYFDVWGQGTTVTVSS VL: DIQMTQSPSSLSASVGDRVTITCRASENIYRNLAWYQQKPGKAPKLLVYAATNLADGVPSRFSGSGSGTDYTLTISSLQPEDFATYYCQHFWGTPWTFGQGTKVEIK	4.8%	4.9%	5.0%	4.7%
75 (antibody, synthetic humanized antibody heavy chain variable region sequence; synthetic humanized antibody light chain variable region sequence; synthetic antibody constant region sequence) VH: QVQLVQSGSELKKPGASVKVSCKASGYTFTDYSMHWVRQAPGQGLEWMGWINTETGEPTYAQGFTGRFVFSLDTSVSTAYLQISSLKAEDTAVYYCARIPLYYYGSRYWYFDVWGQGTTVTVSS VL: DIQMTQSPSSLSASVGDRVTITCRASENIYRNLAWYQQKPGKAPKLLVYAATNLADGVPSRFSGSGSGTDYTLTISSLQPEDFATYYCQHFWGTPWTFGQGTKVEIK ASTKGPSVFPLAPSSKSTSGGTAALGCLVKDYFPEPVTVSWNSGALTSGVHTFPAVLQSSGLYSLSSVVTVPSSSLGTQTYICNVNHKPSNTKVDKRVEPKSCDKTHTCPPCPAPPAAAPSVFLFPPKPKDTLMISRTPEVTCVVVDVSHEDPEVQFNWYVDGVEVHNAKTKPREEQFNSTFRVVSVLTVVHQDWLNGKEYKCKVSNKGLPAPIEKTISKTKGQPREPQVYTLPPSREEMTKNQVSLTCLVKGFYPSDIAVEWESNGQPENNYKTTPPMLDSDGSFFLYSKLTVDKSRWQQGNVFSCSVMHEALHNHYTQKSLSLSPG	4.8%	4.7%	4.4%	4.5%

Further lines, results first:

hEphA3-SEAP-: absorbance at 450 nm, percentage with respect to hEphA4-SEAP-His as 100% [1]	hEphB3-SEAP-: absorbance at 450 nm, percentage with respect to hEphA4-SEAP-His as 100% [2]	SEAP-His: absorbance at 450 nm, percentage with respect to hEphA4-SEAP-His as 100% [3]	hEphB2-SEAP-: absorbance at 450 nm, percentage with respect to hEphA4-SEAP-His as 100% [4]	Molecule
5.0%	5.0%	5.3%	5.0%	135 (antibody, V domains shown, synthetic humanized antibody heavy chain variable region sequence; synthetic humanized antibody light chain variable region sequence) VH: QVQLVQSGSELKKPGASVKVSCKASGYTFTDYSMHWVRQAPGQGLEWMGWINTETGEPTYADDFKGRFVFSLDTSVSTAYLQISSLKAEDTAVYYCARIPLYYYGSRYWYFDVWGQGTTVTVSS VL: EIVMTQSPATLSVSPGERATLSCRASENIYRNLAWYQQKPGQSPRLLIYAATNLADGIPARFSGSGSGTEYTLTISSLQSEDFAVYYCQHFWGTPWTFGQGTKVEIK
4.9%	5.0%	5.5%	4.9%	76 (antibody, V domains shown, synthetic humanized antibody heavy chain variable region sequence; synthetic humanized antibody light chain variable region sequence) VH: QVQLVQSGSELKKPGASVKVSCKASGYTFTDYSMHWVRQAPGQGLKWMGWINTETGEPTYAQGFTGRFVFSLDTSVSTAYLQISSLKAEDTAVYYCARIPLYYYGSRYWYFDVWGQGTTVTVSS VL: DIQMTQSPSSLSASVGDRVTITCRASENIYRNLAWYQQKPGKAPKLLVYAATNLADGVPSRFSGSGSGTDYTLTISSLQPEDFATYYCQHFWGTPWTFGQGTKVEIK
